This is an account of results in patent US20260069689A1 (Regeneron, published 2026).

Assay [1] has as its target T1, SARS-CoV2 Spike ecto foldon Trimer expressed with a C-terminal myc-myc-hexahistidine (SARS-CoV-2, UniProt P0DTC2 14-1213).
T1 construct: extracellular domain
The experiment in a line: SPR Biacore, mAb captured by anti-hFc, 25C. On the technique in general: In SPR one partner is held on a chip, and binding of the other changes the refractive index at the surface.

Assay [2] concerns the target T1, SARS-CoV2 Spike ecto foldon Trimer …. The experiment in a line: SPR Biacore, mAb captured by anti-hFc, 37C.

B1: mAb14313 (antibody, V domains shown)
VH: EVQLVESGGGLVQPGRSLRLSCVASGFTFDDSAMHWVRQPPGKGLEWVSGISWNSGIIGYAESVKGRFIISRDNAKNSLFLHMRGLRPEDTAVYYCARDRLELSYYYYGMDVWGQGTTVTVSS
VL: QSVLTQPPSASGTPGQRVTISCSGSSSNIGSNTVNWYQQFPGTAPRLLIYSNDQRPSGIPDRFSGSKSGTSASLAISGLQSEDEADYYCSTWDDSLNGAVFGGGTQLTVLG
B1: in assay [1], the Kd (in general, the equilibrium constant for the complex coming apart) stood at 0.0565 nM; the dissociation rate constant (koff) (commonly the rate constant with which the complex falls apart) was 0.000113 s⁻¹; the kon (in general, the second-order rate constant of association) was 2e+06 M⁻¹ s⁻¹; the t½ – broadly, the time needed for the level to fall by half in the phase considered – is 1.7 h. In assay [2], this molecule showed a Kd of 0.0984 nM, a koff of 9.94e-05 s⁻¹, a kon of 1.01e+06 M⁻¹ s⁻¹ and a t½ of 1.94 h.

B2: mAb14289 (antibody, V domains shown)
VH: QVQLVQSGPEVKKPGASVKVSCKASGYTFTSYAISWVRQAPGQGLEWMGWISAYNGNTNYAQKLQGRVTMTTDTFTSTAYMELRSLRSDDTAVYYCAVPADHITFDYWGQGTLVTVSS
VL: EIVLTQSPGTLSLSPGERATLSCRASQSVSSYLAWYQQKPGQAPRLLIHGASSRATGIPDRFSGSGSGTDFTLTISRLEPEDFAVYYCQQYGSSFLTFGGGTKVEIKR
In assay [1], B2 had a Kd of 0.0696 nM, an off-rate (koff) of 6.35e-05 s⁻¹, a kon of 912000 M⁻¹ s⁻¹ and a t½ of 3.03 h. Moreover, in assay [2], the affinity, expressed as Kd, was 0.0728 nM; the koff came to 6.63e-05 s⁻¹; the kon is 911000 M⁻¹ s⁻¹; the t½ was found to be 2.91 h.

B3: mAb14283 (antibody, V domains shown)
VH: QVQLQESGPGLVKPSGTLSLTCDVSGGSISSNNWWSWVRQRPGKGLQWIGEIYHNENTNYNPSLKSRVIMSIDKSKNQFSLKLTSVTAADTAVYYCARGDVLDWFDPWGQGTLVTVSS
VL: QSALTQPASVSGSPGQSTTISCTGTSSDVGGYNYVSWYQQYPGKAPKLMIYDVTNRPSGVSHRFSGSKSGNTASLTISGLQAEDEADYYCSSYTSSSTVIFGGGTKLTVLG
In assay [1], B3 showed a Kd of 0.0539 nM, a koff of 8.66e-05 s⁻¹, a kon of 1.61e+06 M⁻¹ s⁻¹ and a t½ of 2.22 h. In assay [2], binding was characterised by a dissociation constant (Kd) of 0.0847 nM, the off-rate constant (koff) stood at 7.32e-05 s⁻¹, the association rate constant (kon) worked out at 865000 M⁻¹ s⁻¹ and the t½ was 2.63 h.

B4: mAb14286 (antibody, V domains shown)
VH: QVQLVQSGAEVKKPGASVKVSCKASGYTFTDYFIHWVRQAPGQGLEWMGWINPTSGGTNYAQKFRGRVTMTRDTSISTAYVELSRLRSDDTALYYCARDLPFYSDTKQFDYWGQGTLVTVSS
VL: QSALTQPASVSGYPGQSITISCTGTSSDVGGYNYVSWYQQHPGKAPKLMIFDVSNRPSGVSNRFSGSKSGNTASLTFSGLQAEDEADYYCSSYTSSSTLVFGGGTKLTVLG
In assay [1], B4 returned a dissociation constant Kd of 0.0331 nM, an off-rate (koff) of 8.71e-05 s⁻¹, a kon of 2.63e+06 M⁻¹ s⁻¹ and a t½ of 2.21 h. In assay [2], this molecule came in with a Kd of 0.0544 nM, a koff of 0.000141 s⁻¹, a kon of 2.59e+06 M⁻¹ s⁻¹ and a t½ of 1.37 h.

B5: mAb14294 (antibody, V domains shown)
VH: EVQLVESGGGLVQPGGSLRLSCAASGFTFSNHWMDWVRQAPGKGLVWVSRINSDGSSTDYADSVRGRFTMSRDNAKNTLYLQMSSLRAEDTAVYYCAREGMIFGAVIIPGWYFDLWGRGALVTVSS
VL: EIVLTQSPGTLSLSPGERATLSCRASQSVSSSQLAWYQQKPGQAPRLLIYGASSRATGIPDRFSGSGSGTDFTLTISRLEPEDFAVYYCQQYDSFGQGTKLEIKR
B5: in assay [1], the affinity, expressed as Kd, was 0.0329 nM; the koff came to 2.29e-05 s⁻¹; the on-rate constant (kon) was 697000 M⁻¹ s⁻¹; the t½ is 8.39 h. In assay [2], this molecule gave a dissociation constant (Kd) of 0.033 nM, a koff of 2.29e-05 s⁻¹, an on-rate constant (kon) of 694000 M⁻¹ s⁻¹ and a t½ of 8.4 h.

B6: mAb14235 (antibody, V domains shown)
VH: QITLKESGPTLVKPTQTLTLTCTFSGFSLNTGGVGVGWIRQPPGNALEWLALIYWDDDKRYNPSLKTRLTISKDTSKNQVVLTMTNMDPVDTATYFCAHLTIAVIVDFWGQGTLVTVSS
VL: QSALTQPASVSGSPGQSITISCTATSSDVGTYNYVSWFQHHPGKAPKLMIYEVTNRPSGVSNRFSGSKSGNTASLTISGLQAEDEADYYCSSYTTTSIVFGGGTKLTVLG
In assay [1], B6 displayed a Kd of 0.0474 nM, a koff of 3.69e-05 s⁻¹, a kon of 779000 M⁻¹ s⁻¹ and a t½ of 5.21 h. In assay [2], this molecule gave a Kd of 0.0517 nM, a koff of 3.8e-05 s⁻¹, a kon of 735000 M⁻¹ s⁻¹ and a t½ of 5.07 h.

B7: mAb14258 (antibody, V domains shown)
VH: QLQLQESGPGLVKPSETLSLICTGSGDSISSSHYYWGWIRQPPGKGLEWIGSTYFSGSTYYNPSLKSRVSISVDTSKNQVSLKLISVTAADTAVYYCAREMGATLGDYWGPGTLVTVSS
VL: QSVLTQPPSASGTPGQRVTISCSGSSSNIGNNYVYWYQQFPGTTPRLLIYRNNERPSGVPDRFSGSKSGTSASLVISGLRSEDEADYYCAAWDDSLSAHYVFGTGTKVTVLG
In the case of B7, in assay [1], the dissociation constant (Kd) was 0.0232 nM, the koff worked out at 4.91e-05 s⁻¹, the kon was determined as 2.12e+06 M⁻¹ s⁻¹ and the t½ stood at 3.92 h. In assay [2], this molecule showed a Kd of 0.0776 nM, an off-rate constant (koff) of 7.93e-05 s⁻¹, a kon of 1.02e+06 M⁻¹ s⁻¹ and a t½ of 2.43 h.

B8: mAb14315 (antibody, V domains shown)
VH: QVQLVQSGAEVKKPGSSVKVSCKASGDTFSTYAINWVRQAPGQGLEWMGRFIHIFGTANYAQKFQGRVTITADESTSTAYMELRSLRSEDTAVYYCARDGVDYGDYRPDYWGQGTLVTVSS
VL: EIVLTQSPGTLSLSPGERATLSCRASQSVSSNYLAWYQQKPGQAPRLLIYGASSRATGIPERFSGSGSGTDFTLTISRLEPEDFAVYYCQQYGSSLYTFGQGTKLEIKR
As to B8, in assay [1], the Kd came to 0.0483 nM, the koff was 3.15e-05 s⁻¹, the on-rate constant (kon) stood at 652000 M⁻¹ s⁻¹ and the t½ is 6.1 h. In assay [2], the dissociation constant (Kd) was found to be 0.0437 nM, the koff came to 3.25e-05 s⁻¹, the on-rate constant (kon) amounted to 743000 M⁻¹ s⁻¹ and the t½ was 5.93 h.

B9: mAb13458 (antibody, V domains shown)
VH: EVQLVESGGGLVQPGRSLRLSCAASGFTFDDYAMHWVRQAPGKGLEWVSGISWNSGSIGYADSVKGRFTISRDNAKNSLYLQMNSLRAEDTALYYCAKDIGITTPYWGQGTLVTVSS
VL: AIQMTQSPSSLSASVGDRVTITCRASQDIRNDLGWYQQKPGKAPKLLIYSASSLQTGVPSRFSGSGSGTDFTLTISSLHPEDFATYYCLQDYWYTWTFGQGTKVEIKR
Regarding B9, in assay [1], the dissociation constant (Kd) was determined as 0.0351 nM, the off-rate (koff) worked out at 4.26e-05 s⁻¹, the on-rate (kon) was 1.21e+06 M⁻¹ s⁻¹ and the t½ was found to be 4.52 h. In assay [2], this molecule showed an equilibrium dissociation constant (Kd) of 0.05 nM, a dissociation rate constant (koff) of 4.08e-05 s⁻¹, a kon of 815000 M⁻¹ s⁻¹ and a t½ of 4.72 h.

B10: mAb13459 (antibody, V domains shown)
VH: EVQLVESGGGLVQPGRSLRLSCAASGFTFDDYAMHWVRQAPGKGLEWVSGISWNSGSIGYADSVKGRFTISRDNAKNSLYLQMNSLRAEDTALYYCAKDIGITTPYWGQGTLVTVSS
VL: AIQMTQSPSSLSASVGDRVTITCRASQDIRNDLGWYQQKPGKAPKLLIYSASSLQTGVPSRFSGSGSGTDFTLTISSLHPEDFATYYCLQDYNYVWTFGQGTKVEIKR
Take B10: in assay [1], the equilibrium dissociation constant (Kd) amounted to 0.0389 nM, the koff amounted to 5.46e-05 s⁻¹, the kon is 1.41e+06 M⁻¹ s⁻¹ and the t½ was 3.52 h. Also, in assay [2], the Kd came to 0.0599 nM, the koff came to 4.76e-05 s⁻¹, the kon is 794000 M⁻¹ s⁻¹ and the t½ is 4.05 h.

B11: mAb13457 (antibody, V domains shown)
VH: EVQLVESGGGLVQPGRSLRLSCAASGFTFDDYAMHWVRQAPGKGLEWVSGISWNSGSIGYADSVKGRFTISRDNAKNSLYLQMNSLRAEDTALYYCAKDIGITTPYWGQGTLVTVSS
VL: AIQMTQSPSSLSASVGDRVTITCRASQDIRNDLGWYQQKPGKAPKLLIYSASSLQTGVPSRFSGSGSGTDFTLTISSLHPEDFATYYCLQDYDYTWTFGQGTKVEIKR
Regarding B11, in assay [1], the Kd is 0.0718 nM and the t½ came out at 3.49 h. In addition, in assay [2], the Kd stood at 0.0779 nM and the t½ was found to be 3.22 h.

B12: mAb14255 (antibody, V domains shown)
VH: QVQLQESGPGLVKPSETLSLTCTVSGGSISGYYWSWIRQPPGKGLDWIGYIYYRGNTNYNPSLKSRVTISVDTSNNQFSLKLSSVTAADTAVYYCARYGEGYGDASGYHFDYWGQGTLVTVSS
VL: QSALTQPASVSGSPGQSITISCTGTSSDVGSYNLVSWYQQHPGKAPKLMIYEDSKRPSGVANPFSGSKSGNTASLTISGLQAEDEADYYCSSYAGSSTWVFGGGTKLTVLG
As to B12, in assay [1], binding was characterised by a dissociation constant (Kd) of 0.0706 nM, the koff was determined as 0.000138 s⁻¹, the kon was determined as 1.96e+06 M⁻¹ s⁻¹ and the t½ came to 1.39 h. In assay [2], this molecule had a dissociation constant (Kd) of 0.155 nM, a koff of 0.000161 s⁻¹, a kon of 1.03e+06 M⁻¹ s⁻¹ and a t½ of 1.2 h.

B13: mAb14247 (antibody, V domains shown)
VH: QITLKESGPTLVKPTQTLTLTCTFSGFSLSTSAVGVGWIRQPPGKALEWLALIYWDDDKRYSPSLKSRLTITKDTSKNQLVLTMTNVDPVDTATYYCAHHTIQLIFDYWGQGTLVTVSS
VL: QSALTQPASVSGSPGQSITISCTATSSDVGNYNYVSWYQQHPGKAPKLMIYEVSNRPSGVSNRFSGSKSGNTASLTISGLQAEDEADYYCSSYTSSSTPLVFGGGTKLTVLG
For B13, in assay [1], the equilibrium dissociation constant (Kd) turned out to be 0.0521 nM, the koff was 4.91e-05 s⁻¹, the on-rate (kon) was 944000 M⁻¹ s⁻¹ and the t½ worked out at 3.92 h. In assay [2], this molecule yielded a Kd of 0.0701 nM, an off-rate constant (koff) of 4.72e-05 s⁻¹, a kon of 674000 M⁻¹ s⁻¹ and a t½ of 4.08 h.

B14: mAb14257 (antibody, V domains shown)
VH: EVQLVESGGGLVQPGGSLRLSCAASGFTVSRSYMNWVRQAPGKGLEWVSVVFTGGTTKHTDSVKGRFTISRDNSMNTLYLQMNSLRPEDTAVYYCARVAIVETTGAFDIWGQGTMVTVSS
VL: QSVLTQPPSVSGAPGQRVTISCTGTSSNIGADFDVHWYQQFPGTAPKLLIYGHTNRPSGIPDRFSGSKSGTSASLAITGLQAEDEADYYCQSYDSSLSGSVVFGGGTKLTVLG
In assay [1], B14 yielded a Kd of 0.0434 nM, a koff of 0.000107 s⁻¹, an association rate constant (kon) of 2.45e+06 M⁻¹ s⁻¹ and a t½ of 1.81 h. In assay [2], this molecule yielded a Kd of 0.141 nM, a koff of 0.000165 s⁻¹, an on-rate (kon) of 1.17e+06 M⁻¹ s⁻¹ and a t½ of 1.17 h.
